Measurements reported in patent US20230346773A1, “USE OF PCSK9 INHIBITOR IN PREPARATION OF PRODUCT FOR TREATING MULTIPLE DISEASES” (priority 2020, published 2023).
Marks after values point to notes of the source that are not given here.

Assays:
[1] = tested on: tyrosinase; experiment: Tyrosinase intensity in skin tissue of vitiligo guinea pig model (immunohistochemistry, two-level scoring); type: in vivo; conditions: n = 10
Description: (§1) 10 in each group, Half male and female. Except for the blank control group, the other groups were smeared with 5% hydroquinone in the hair removal area for decolorization, 0.5 mL each time, twice a day, and the animals in the blank control group were smeared with an equal amount of normal saline every day. […] After modeling, the drug was administered in the above manner, once a day for 30 days.
The excised mouse skin tissue was fixed in 10% formalin dehydrated, cleared in xylene, embedded in paraffin, sectioned, deparaffinized to water, then 50 μL of peroxidase blocking agent (3% H2O2) was added to each section for 10 min to block endogenous peroxidase activity. The sections were immersed in 0.01 mol·L-1PBS buffer and microwaved for 10 min, added with 50 μL mouse anti-human tyrosinase monoclonal antibody, left at 37° C. for 60 min, then added with 50 μL of Elivision reagent, left at 37° C. for 30 min. The sections were then placed in freshly prepared DAB-H2O2 chromogenic solution for color development, rinsed with distilled water, stained with hematoxylin for contrast for 1 min, and sealed with neutral gum. The tyrosinase-positive product was located in the cytoplasm of the cell, shown as yellow or brownish-yellow granules or clumps in the cells under the microscope. The two-level scoring method was used to determine the results. If the number of positive cells was less than 5%, the score was 0; 5%˜25% is 1 point; 2 points for 25%˜50%; 3 points for 50%˜75%; >75% is 4 points. When classified according to staining intensity: 1 point for light yellow; 2 points for yellow or dark yellow; 3 points for brown or brownish yellow. If the sum of the two was less than 2, it was negative (−); 2-3 points as positive (+); 4-5 points as moderately positive (2+); 6-7 points as strongly positive (3+).

[2] = tested on: vitiligo guinea pig model caused by hydroquinone depigmentation; experiment: Vitiligo guinea pig model caused by hydroquinone depigmentation: counts of epidermal MC and melanin-granule-containing basal cells; type: in vivo; conditions: guinea pig skin after hydroquinone decolorization, drug once a day for 30 days, n = 10, x ± s
Description: as §1
After the observation, the mice were sacrificed, and the skin tissue on the back about 3 cm×3 cm was cut for histopathological examination.
The excised mouse skin tissue was fixed in 10% formalin for 1 hour, washed with running water for 3-4 min, and placed into a phosphate buffer solution (pH 7.4) containing 0.1% dihydroxyphenylalanine, and let stand at 37° C. for 1 hour. Then it was replaced with fresh Dopa reagent and left at 37° C. for 12 hours, rinsed with running water, and fixed with Bouin's solution continuously for 24 h. After the specimens were taken out, it was rinsed with running water for 4 hours, dehydrated, cleared in xylene, embedded in paraffin, deparaffinized to water, and stained with hematoxylin-eosin for contrast. Dehydrated and routinely mounted. After Dopa-oxidase staining, brownish-black staining was MC positive.
The excised mouse skin tissue was fixed in 10% formalin, dehydrated, cleared with xylene, embedded in paraffin, sectioned, deparaffinized to water, washed with distilled water several times, then stained with Lillie reagent, soaked with ferric chloride and potassium ferricyanide mixed solution for 15-20 minutes, then differentiated with 1% acetic acid aqueous solution for several minutes, washed with distilled water several times, then quickly dehydrated with 95% ethanol and absolute ethanol, cleared in xylene, and sealed with neutral gum. If melanin was dark green after Lillie reagent staining, it was positive.

[3] = tested on: rabbit ear acne model; experiment: Rabbit ear acne model induced by 2% coal tar; type: in vivo, New Zealand rabbits; conditions: n = 10
Source text: The inner side of the right ear of the rabbits was taken as the observation area, the left ear of all rabbits was used as the self-negative control, and 95% alcohol was applied. The inner side of the right ear of the model group and the treatment group were smeared with 2% coal tar (Alfa Aesar China Company, 2% coal tar solution made with 95% alcohol), and evenly applied to the opening of the ear canal on the inner side of the rabbit ear with a sterile cotton swab in a range of about 2 cm×2 cm, once a day, 0.5 mL each time. Then the previous application was wiped with warm water. […] 18 hours after the last coating, the samples were sacrificed, fixed in 10% formaldehyde, embedded in paraffin, and stained with HE for histopathological analysis.
Histological grading standard of the acne model: […], according to histology. Grade 0 means that there are only loose keratinized cells in the infundibulum, without acne forming the “1”; grade 1: the skin on the surface of the rabbit ear is red, or a small amount of dense keratinized material is seen in the infundibulum of the hair follicle, and the infundibulum is not expanded “+”; grade 2: moderately dense keratinized material is seen in the infundibulum of the hair follicle, and it extends to the sebaceous glands, with the proliferation of sebaceous gland ducts, the infundibulum expands by “2+”; grade 3: extensive keratinized material in the hair follicle. Tight keratin embolism in hair follicles causes severe expansion of hair follicles, obvious hyperplasia of sebaceous duct epithelium, skin bulges and scars, and some sebaceous glands degenerate into “3+”.
Histopathological changes were observed under a microscope, and the thickness of 5 different epidermises on a slice was measured with the Biomias99 image analysis system, and the average value was calculated; the area of two hair follicles with the same position and the most complete structure and the diameter of four sebaceous glands were detected, and the average value of each was calculated, and then the data of the left and right external auditory canals of each group were subtracted to obtain the difference in the thickness of the epidermis, the difference in hair follicle area and the diameter of the sebaceous gland in the left and right ears of each rabbit.

B1: Evolocumab (antibody, chains of the INN, looked up, V domains shown)
VH: EVQLVQSGAEVKKPGASVKVSCKASGYTLTSYGISWVRQAPGQGLEWMGWVSFYNGNTNYAQKLQGRGTMTTDPSTSTAYMELRSLRSDDTAVYYCARGYGMDVWGQGTTVTVSS
VL: ESALTQPASVSGSPGQSITISCTGTSSDVGGYNSVSWYQQHPGKAPKLMIYEVSNRPSGVSNRFSGSKSGNTASLTISGLQAEDEADYYCNSYTSTSMVFGGGTKLTVL
notes: PCSK9 monoclonal antibody jointly developed by Amgen and Astellas, trade name Repatha
**Q.** For B1, which “Color (units)” value ([1]; score in brackets for staining colour) is on record?
**A.** 4 units

**Q.** What about the “Number of positive cells (units)” value ([1]; score in brackets for tyrosinase-positive cells) of the same molecule?
**A.** 4 units

**Q.** What about the “Total number (units)” value ([1]; sum of positive-cell and colour scores) of the same molecule?
**A.** 7 units

**Q.** And the Color ([1]; tyrosinase staining colour)?
**A.** Brownish-yellow

**Q.** What about the “Number of positive cells” value ([1]; tyrosinase-positive cells) of the same molecule?
**A.** 40%

**Q.** And the Epidermal melanocyte count ([2]; average number of MCs in each 100 epidermal basal cells)?
**A.** 46.2 ± 3.8

**Q.** And the “Basal cells containing melanin granules count” value ([2]; average number per 100 epidermal basal cells)?
**A.** 41.2 ± 3.9

**Q.** And the Skin thickness ([3]; rabbit ear epidermis)?
**A.** 0.1532 ± 0.0156 mm

**Q.** And the Hair follicle area ([3]; rabbit ear)?
**A.** 0.1533 ± 0.0562* mm^2

**Q.** And the Sebaceous gland diameter ([3]; rabbit ear)?
**A.** 0.0432 ± 0.0267 mm

**Q.** What about the “Histological grading of acne: number of animals graded −” value ([3]; right ear, grade 0: only loose keratinized cells in the infundibulum, without acne) of the same molecule?
**A.** 9

**Q.** And the “Histological grading of acne: number of animals graded 1+” value ([3]; right ear, grade 1: small amount of dense keratinized material, infundibulum not expanded)?
**A.** 1

**Q.** And the “Histological grading of acne: number of animals graded 2+” value ([3]; right ear, grade 2: moderately dense keratinized material extending to sebaceous glands, infundibulum expands)?
**A.** 0

**Q.** And the “Histological grading of acne: number of animals graded 3+” value ([3]; right ear, grade 3: extensive keratinized material, severe expansion of hair follicles)?
**A.** 0
